The experiment concerns the target FXI. Description: Kd (SPR).

Our source for the Kd values is the FLAb antibody collection (doi:10.1101/2023.12.08.570889).

Where a chain is given by its changes, count along the chain named.

B1: unnamed (protein)
chain 1: EVQLLESGGGLVQPGGSLRLSCAASGFTFSQYGMDWVRQAPGKGLEWVSGIGPSGGSTVYADSVKGRFTISRDNSKNTLYLQMNSLRAEDTAVYYCTRDGSAYYYAFDYWGQGTTVTVSS
chain 2: DIQMTQSPSSLSASVGDRVTITCQASQDISNYLNWYQQKPGKAPKLLIYDASNLETGVPSRFSGSGSGTDFTFTISSLQPEDIATYYCQQADSFPVTFGGGTKVEIK
On to B1, for which the Kd was determined as 248 nM.

B2: unnamed (protein)
chain 1: B1 chain 1 with Q31S, G33A, G52S, P53G, S54D, D99G, S101P
chain 2: B1 chain 2
B2 yielded a Kd of 857 nM.

B3: unnamed (protein)
chain 1: B1 chain 1 with Q31S, G33A, G52S, P53G, S54D, D99G, S101P, A106G, Y109V
chain 2: B1 chain 2
B3 came in with a Kd of 546 nM.

B4: unnamed (protein)
chain 1: B1 chain 1 with Q31S, G52S, P53S, S54D, S101P, A102S, Y109V
chain 2: B1 chain 2
Take B4: the Kd stood at 80.9 nM.

B5: unnamed (protein)
chain 1: B1 chain 1 with Q31S, G33A, G52S, P53S, S54D, T97A, S101P, A102S, Y109V
chain 2: B1 chain 2
With B5, the Kd came out at 51.1 nM.

B6: unnamed (protein)
chain 1: B1 chain 1 with Q31S, G33A, G52S, P53A, S54D, S101P, A106G, Y109V
chain 2: B1 chain 2
For B6, the Kd was found to be 485 nM.

B7: unnamed (protein)
chain 1: B1 chain 1 with Q31S, G33A, G52S, P53S, S54D, D99G, S101P, A102Y, Y109V
chain 2: B1 chain 2
Turning to B7, the dissociation constant (Kd) was 375 nM.

B8: unnamed (protein)
chain 1: B1 chain 1 with Q31S, G33A, G52S, P53S, S54D, T97A, D99G, S101P, Y109V
chain 2: B1 chain 2
B8: the Kd came out at 635 nM.

B9: unnamed (protein)
chain 1: B1 chain 1 with Q31S, G52S, P53S, S54D, S101P, Y109V
chain 2: B1 chain 2
As to B9, the Kd came out at 58 nM.

B10: unnamed (protein)
chain 1: B1 chain 1 with Q31S, G33A, G52S, P53Y, S54D, T97A, D99G, S101P, Y109V
chain 2: B1 chain 2
The molecule B10 yielded an equilibrium dissociation constant (Kd) of 702 nM.

B11: unnamed (protein)
chain 1: B1 chain 1 with Q31S, G33A, G52S, P53S, S54D, T97A, D99G, S101P, A106G, Y109V
chain 2: B1 chain 2
As for B11, the Kd stood at 310 nM.

B12: unnamed (protein)
chain 1: B1 chain 1 with Q31S, G33A, G52S, P53A, S54D, D99G, S101P
chain 2: B1 chain 2
For B12, the equilibrium dissociation constant (Kd) amounted to 707 nM.

B13: unnamed (protein)
chain 1: B1 chain 1 with Q31S, G33A, G52S, P53S, S54D, S101P, A102Y, Y109V
chain 2: B1 chain 2
The molecule B13 came in with a dissociation constant (Kd) of 693 nM.

B14: unnamed (protein)
chain 1: B1 chain 1 with T97A, D99R, S101R, A102Y, Y103G, Y104L, F107M
chain 2: B1 chain 2
In the case of B14, the equilibrium dissociation constant (Kd) came to 2040 nM.

B15: unnamed (protein)
chain 1: B1 chain 1 with D99G, S101P, A102Y, A106G, F107M, Y109V
chain 2: B1 chain 2
B15 came in with a Kd of 102 nM.

B16: unnamed (protein)
chain 1: B1 chain 1 with Q31S, G33A, G52S, P53S, S54D, T97A, D99G, S101P, A102S, Y109V
chain 2: B1 chain 2
B16 yielded a Kd of 505 nM.

B17: unnamed (protein)
chain 1: B1 chain 1 with Q31S, G52S, P53S, S54D, D99G, S101P, Y109V
chain 2: B1 chain 2
As for B17, the dissociation constant (Kd) is 293 nM.

B18: unnamed (protein)
chain 1: B1 chain 1 with Q31S, G52S, P53A, S54D, D99G, S101P, Y109V
chain 2: B1 chain 2
On to B18, for which the Kd was determined as 245 nM.

B19: unnamed (protein)
chain 1: B1 chain 1 with Q31S, G33A, G52S, P53S, S54D, S101P, A102W, Y109V
chain 2: B1 chain 2
Turning to B19, the Kd stood at 692 nM.
